This is an account of results in article PMC5065051, “Genetic and Biochemical Approaches for In Vivo and In Vitro Assessment of Protein Oligomerization: The Ryanodine Receptor Case Study” (Journal of Visualized Experiments : JoVE, 2016).

Series [1] deals with BT8, RyR2 extreme C-terminal domain (bait) (human). The series is described as follows: two-hybrid; GAL4 system in yeast; quantitative liquid culture β-Gal assay (ONPG), 30 °C; normalized against the positive control pVA3 + pTD1.
Series [2] concerns the molecule itself. The series is described as follows: cross-linking; glutaraldehyde (0.0025% v/v, 0-60 min, RT) on HEK293 cell homogenate treated with dithiothreitol; SDS-PAGE and blot with Ab^cMyc.

For “RyR2 N-terminal fragment (RyR2 residues 1 - 906), GAL4 fusions for yeast two-hybrid (from UniProt Q92736 1-906) (domain or fragment)”, the β-Gal activity, percent of the positive control (pVA3 + pTD1) in series [1] is below 10%.

B1: RyR2 N-terminus domain (residues 1 - 906), cMyc-tagged (BT4L) or HA-tagged (AD4L), expressed in HEK293 (domain or fragment, human, UniProt Q92736 1-906, looked up)
chain: MADGGEGEDEIQFLRTDDEVVLQCTATIHKEQQKLCLAAEGFGNRLCFLESTSNSKNVPPDLSICTFVLEQSLSVRALQEMLANTVEKSEGQVDVEKWKFMMKTAQGGGHRTLLYGHAILLRHSYSGMYLCCLSTSRSSTDKLAFDVGLQEDTTGEACWWTIHPASKQRSEGEKVRVGDDLILVSVSSERYLHLSYGNGSLHVDAAFQQTLWSVAPISSGSEAAQGYLIGGDVLRLLHGHMDECLTVPSGEHGEEQRRTVHYEGGAVSVHARSLWRLETLRVAWSGSHIRWGQPFRLRHVTTGKYLSLMEDKNLLLMDKEKADVKSTAFTFRSSKEKLDVGVRKEVDGMGTSEIKYGDSVCYIQHVDTGLWLTYQSVDVKSVRMGSIQRKAIMHHEGHMDDGISLSRSQHEESRTARVIRSTVFLFNRFIRGLDALSKKAKASTVDLPIESVSLSLQDLIGYFHPPDEHLEHEDKQNRLRALKNRQNLFQEEGMINLVLECIDRLHVYSSAAHFADVAGREAGESWKSILNSLYELLAALIRGNRKNCAQFSGSLDWLISRLERLEASSGILEVLHCVLVESPEALNIIKEGHIKSIISLLDKHGRNHKVLDVLCSLCVCHGVAVRSNQHLICDNLLPGRDLLLQTRLVNHVSSMRPNIFLGVSEGSAQYKKWYYELMVDHTEPFVTAEATHLRVGWASTEGYSPYPGGGEEWGGNGVGDDLFSYGFDGLHLWSGCIARTVSSPNQHLLRTDDVISCCLDLSAPSISFRINGQPVQGMFENFNIDGLFFPVVSFSAGIKVRFLLGGRHGEFKFLPPPGYAPCYEAVLPKEKLKVEHSREYKQERTYTRDLLGPTVSLTQAAFTPIPVDTSQIVLPPHLERIREKLAENIHELWVMNKIELGWQYGP
notes: ryanodine receptor 2 (RyR2), human, residues 1-906; Two copies of the same stretch, each with ONE tag: in the co-IP cMyc-BT4L and HA-AD4L were co-expressed; in the cross-linking cMyc-BT4L was expressed alone; also called cMyc-BT4L; source: HEK293, transiently transfected (calcium phosphate), in lysate or homogenate
On to B1, for which, in series [2], the “stoichiometry N” value was 4.

By stoichiometry N is commonly meant the number of molecules, sites or subunits per partner or assembly.
